Results on 14 molecules are retold here after US20260256936A1, “BIOACTIVE CONJUGATES, PREPARATION METHOD AND USE THEREOF” (priority 2023, published 2026).

Where two headings read alike, the source gives them in different places.

What all share (assay): cell-based or functional assay
For assay [1], the target named is T1, B7H3 on B7H3-expressing cells (NCI-H358, NCI-H1048) (human, UniProt Q5ZPR3 29-534).
T1 sequence (looked up): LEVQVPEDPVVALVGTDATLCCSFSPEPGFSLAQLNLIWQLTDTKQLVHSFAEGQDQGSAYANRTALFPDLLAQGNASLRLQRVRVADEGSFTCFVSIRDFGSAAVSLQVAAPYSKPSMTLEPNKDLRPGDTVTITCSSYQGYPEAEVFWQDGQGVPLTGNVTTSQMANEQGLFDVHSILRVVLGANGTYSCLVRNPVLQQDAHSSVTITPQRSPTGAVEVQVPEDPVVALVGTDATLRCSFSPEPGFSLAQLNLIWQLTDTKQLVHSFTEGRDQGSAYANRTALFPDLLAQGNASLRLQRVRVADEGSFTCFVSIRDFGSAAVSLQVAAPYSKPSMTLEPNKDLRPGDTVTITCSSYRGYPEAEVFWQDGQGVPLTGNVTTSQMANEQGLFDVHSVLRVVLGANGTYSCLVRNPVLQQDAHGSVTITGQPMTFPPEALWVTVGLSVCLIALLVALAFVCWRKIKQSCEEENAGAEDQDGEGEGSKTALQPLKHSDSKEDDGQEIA

Assay [2] deals with T2, CLL1 on CLL1-expressing cells (U937, HL60) (human, UniProt Q5QGZ9 1-265).
T2 sequence (looked up): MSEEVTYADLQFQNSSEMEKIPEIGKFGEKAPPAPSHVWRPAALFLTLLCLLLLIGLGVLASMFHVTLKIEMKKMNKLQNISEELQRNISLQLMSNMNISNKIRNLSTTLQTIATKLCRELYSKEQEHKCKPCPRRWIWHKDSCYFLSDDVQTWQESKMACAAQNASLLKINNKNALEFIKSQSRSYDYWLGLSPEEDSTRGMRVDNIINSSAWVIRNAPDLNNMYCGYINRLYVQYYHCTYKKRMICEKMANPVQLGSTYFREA

The target of assay [3] is T2, CLL1 on CLL1-expressing cells (U937, …). The source holds these as a separate data set.
Assay [4] shares this target. This is another data set of the same source.
The target is the same in assay [5]. The source holds these as a separate data set.

B1: ADC4-1 (antibody, human IgG1, kappa, V domains shown)
VH: QVQLVQSGAEVKKPGSSVKVSCKASGYTFTNYVMHWVRQAPGQGLEWMGYINPYNDDVKYNEKFKGRVTITADESTSTAYMELSSLRSEDTAVYYCARWGYYGSPLYYFDYWGQGTLVTVSS
VL: EIVLTQSPATLSLSPGERATLSCRASSRLIYMHWYQQKPGQAPRPLIYATSNLASGIPARFSGSGSGTDFTLTISSLEPEDFAVYYCQQWNSNPPTFGQGTKVEIKR
modifications: conjugator-linker-payload on cysteine thiols after TCEP reduction; positions not given
Consider B1, for which, in assay [1], the “EC50 (nM) direct cellular killing, NCI-H358” value (“EC50 … NCI-H358” for short) was found to be 0.1 nM; the “EC50 (nM) direct cellular killing, NCI-H1048” value was 0.6 nM; the “Emax (%) direct cellular killing, NCI-H358” value was 82.8%; the “Emax (%) direct cellular killing, NCI-H1048” value was determined as 83.6%.

B2: ADC4-2 (antibody, human IgG1, kappa, V domains shown)
VH: QVQLVQSGAEVKKPGSSVKVSCKASGYTFTNYVMHWVRQAPGQGLEWMGYINPYNDDVKYNEKFKGRVTITADESTSTAYMELSSLRSEDTAVYYCARWGYYGSPLYYFDYWGQGTLVTVSS
VL: EIVLTQSPATLSLSPGERATLSCRASSRLIYMHWYQQKPGQAPRPLIYATSNLASGIPARFSGSGSGTDFTLTISSLEPEDFAVYYCQQWNSNPPTFGQGTKVEIKR
modifications: conjugator-linker-payload on cysteine thiols after TCEP reduction; positions not given
In the case of B2, in assay [1], the “EC50 … NCI-H358” value worked out at 0.1 nM; the “Emax (%) direct cellular killing, NCI-H358” value is 81%; the “Emax (%) direct cellular killing, NCI-H1048” value came out at 62%.

B3: ADC4-3 (antibody, human IgG1, kappa, V domains shown)
VH: QVQLVQSGAEVKKPGSSVKVSCKASGYTFTNYVMHWVRQAPGQGLEWMGYINPYNDDVKYNEKFKGRVTITADESTSTAYMELSSLRSEDTAVYYCARWGYYGSPLYYFDYWGQGTLVTVSS
VL: EIVLTQSPATLSLSPGERATLSCRASSRLIYMHWYQQKPGQAPRPLIYATSNLASGIPARFSGSGSGTDFTLTISSLEPEDFAVYYCQQWNSNPPTFGQGTKVEIKR
modifications: conjugator-linker-payload on cysteine thiols after TCEP reduction; positions not given
For the molecule B3, in assay [1], the “EC50 … NCI-H358” value was 0.1 nM; the “EC50 (nM) direct cellular killing, NCI-H1048” value came to 1.6 nM; the “Emax (%) direct cellular killing, NCI-H358” value was 79.9%; the “Emax (%) direct cellular killing, NCI-H1048” value stood at 80%.

B4: ADC3-2 (antibody, human IgG1, kappa, V domains shown)
VH: EVQLVQSGAEVKKPGASVKVSCKASGYSFTDYYMHWVRQAPGQGLEWIGRINPYAGAAFYSQNFKDRVTLTVDTSTSTAYLELSSLRSEDTAVYYCAIERGADLEGYAMDYWGQGTLVTVSS
VL: DIQMTQSPSSLSASVGDRVTITCRASQSVSTSSYNYMHWYQQKPGKPPKLLIKYASNLESGVPSRFSGSGSGTDFTLTISSLQPEDFATYYCQHSWEIPLTFGQGTKVEIKR
modifications: conjugator-linker-payload on cysteine thiols after TCEP reduction; positions not given
Take B4: in assay [2], the “EC50 (nM) direct cellular killing, HL60” value turned out to be 8.2 nM; the “EC50 (nM) direct cellular killing, U937” value stood at 0.2 nM; the “Emax (%) direct cellular killing, HL60” value worked out at 55.9%.

B5: ADC3-3 (antibody, human IgG1, kappa, V domains shown)
VH: EVQLVQSGAEVKKPGASVKVSCKASGYSFTDYYMHWVRQAPGQGLEWIGRINPYAGAAFYSQNFKDRVTLTVDTSTSTAYLELSSLRSEDTAVYYCAIERGADLEGYAMDYWGQGTLVTVSS
VL: DIQMTQSPSSLSASVGDRVTITCRASQSVSTSSYNYMHWYQQKPGKPPKLLIKYASNLESGVPSRFSGSGSGTDFTLTISSLQPEDFATYYCQHSWEIPLTFGQGTKVEIKR
modifications: conjugator-linker-payload on cysteine thiols after TCEP reduction; positions not given
B5: in assay [2], the “EC50 (nM) direct cellular killing, HL60” value turned out to be 1.6 nM and the “EC50 (nM) direct cellular killing, U937” value is 0.2 nM.

B6: ADC3-5 (antibody, human IgG1, kappa, V domains shown)
VH: EVQLVQSGAEVKKPGASVKVSCKASGYSFTDYYMHWVRQAPGQGLEWIGRINPYAGAAFYSQNFKDRVTLTVDTSTSTAYLELSSLRSEDTAVYYCAIERGADLEGYAMDYWGQGTLVTVSS
VL: DIQMTQSPSSLSASVGDRVTITCRASQSVSTSSYNYMHWYQQKPGKPPKLLIKYASNLESGVPSRFSGSGSGTDFTLTISSLQPEDFATYYCQHSWEIPLTFGQGTKVEIKR
modifications: conjugator-linker-payload on cysteine thiols after TCEP reduction; positions not given
Consider B6, for which, in assay [3], the “EC50 (nM) direct cellular killing, U937” value amounted to 1 nM and the “Emax (%) direct cellular killing, HL60” value was determined as 79.8%.

B7: ADC3-4 (antibody, human IgG1, kappa, V domains shown)
VH: EVQLVQSGAEVKKPGASVKVSCKASGYSFTDYYMHWVRQAPGQGLEWIGRINPYAGAAFYSQNFKDRVTLTVDTSTSTAYLELSSLRSEDTAVYYCAIERGADLEGYAMDYWGQGTLVTVSS
VL: DIQMTQSPSSLSASVGDRVTITCRASQSVSTSSYNYMHWYQQKPGKPPKLLIKYASNLESGVPSRFSGSGSGTDFTLTISSLQPEDFATYYCQHSWEIPLTFGQGTKVEIKR
modifications: conjugator-linker-payload on cysteine thiols after TCEP reduction; positions not given
Consider B7, for which, in assay [2], the “EC50 (nM) direct cellular killing, HL60” value worked out at 1.1 nM; the “EC50 (nM) direct cellular killing, U937” value worked out at 0.2 nM; the “Emax (%) direct cellular killing, HL60” value was found to be 98%.

B8: ADC3-11 (antibody, human IgG1, kappa, V domains shown)
VH: EVQLVQSGAEVKKPGASVKVSCKASGYSFTDYYMHWVRQAPGQGLEWIGRINPYAGAAFYSQNFKDRVTLTVDTSTSTAYLELSSLRSEDTAVYYCAIERGADLEGYAMDYWGQGTLVTVSS
VL: DIQMTQSPSSLSASVGDRVTITCRASQSVSTSSYNYMHWYQQKPGKPPKLLIKYASNLESGVPSRFSGSGSGTDFTLTISSLQPEDFATYYCQHSWEIPLTFGQGTKVEIKR
modifications: conjugator-linker-payload on cysteine thiols after TCEP reduction; positions not given
In the case of B8, in assay [4], the “EC50 (nM) direct cellular killing, HL60” value was determined as 4.6 nM; the “EC50 (nM) direct cellular killing, U937” value is 12.8 nM; the “Emax (%) direct cellular killing, HL60” value came out at 43.9%; the “Emax (%) direct cellular killing, U937” value came to 78.7%.

B9: ADC3-12 (antibody, human IgG1, kappa, V domains shown)
VH: EVQLVQSGAEVKKPGASVKVSCKASGYSFTDYYMHWVRQAPGQGLEWIGRINPYAGAAFYSQNFKDRVTLTVDTSTSTAYLELSSLRSEDTAVYYCAIERGADLEGYAMDYWGQGTLVTVSS
VL: DIQMTQSPSSLSASVGDRVTITCRASQSVSTSSYNYMHWYQQKPGKPPKLLIKYASNLESGVPSRFSGSGSGTDFTLTISSLQPEDFATYYCQHSWEIPLTFGQGTKVEIKR
modifications: conjugator-linker-payload on cysteine thiols after TCEP reduction; positions not given
Consider B9, for which, in assay [4], the “EC50 (nM) direct cellular killing, HL60” value came to 8 nM; the “EC50 (nM) direct cellular killing, U937” value is 0.7 nM; the “Emax (%) direct cellular killing, HL60” value was 81%.

B10: ADC3-8 (antibody, human IgG1, kappa, V domains shown)
VH: EVQLVQSGAEVKKPGASVKVSCKASGYSFTDYYMHWVRQAPGQGLEWIGRINPYAGAAFYSQNFKDRVTLTVDTSTSTAYLELSSLRSEDTAVYYCAIERGADLEGYAMDYWGQGTLVTVSS
VL: DIQMTQSPSSLSASVGDRVTITCRASQSVSTSSYNYMHWYQQKPGKPPKLLIKYASNLESGVPSRFSGSGSGTDFTLTISSLQPEDFATYYCQHSWEIPLTFGQGTKVEIKR
modifications: conjugator-linker-payload on cysteine thiols after TCEP reduction; positions not given
Turning to B10, in assay [5], the “EC50 (nM) direct cellular killing, HL60” value was found to be 0.1 nM and the “EC50 (nM) direct cellular killing, U937” value amounted to 0.2 nM.

B11: ADC3-1 (antibody, human IgG1, kappa, V domains shown)
VH: EVQLVQSGAEVKKPGASVKVSCKASGYSFTDYYMHWVRQAPGQGLEWIGRINPYAGAAFYSQNFKDRVTLTVDTSTSTAYLELSSLRSEDTAVYYCAIERGADLEGYAMDYWGQGTLVTVSS
VL: DIQMTQSPSSLSASVGDRVTITCRASQSVSTSSYNYMHWYQQKPGKPPKLLIKYASNLESGVPSRFSGSGSGTDFTLTISSLQPEDFATYYCQHSWEIPLTFGQGTKVEIKR
modifications: conjugator-linker-payload on cysteine thiols after TCEP reduction; positions not given
For the molecule B11, in assay [2], the “EC50 (nM) direct cellular killing, HL60” value was 5.7 nM and the “EC50 (nM) direct cellular killing, U937” value was 0.5 nM.

B12: ADC3-9 (antibody, human IgG1, kappa, V domains shown)
VH: EVQLVQSGAEVKKPGASVKVSCKASGYSFTDYYMHWVRQAPGQGLEWIGRINPYAGAAFYSQNFKDRVTLTVDTSTSTAYLELSSLRSEDTAVYYCAIERGADLEGYAMDYWGQGTLVTVSS
VL: DIQMTQSPSSLSASVGDRVTITCRASQSVSTSSYNYMHWYQQKPGKPPKLLIKYASNLESGVPSRFSGSGSGTDFTLTISSLQPEDFATYYCQHSWEIPLTFGQGTKVEIKR
modifications: conjugator-linker-payload on cysteine thiols after TCEP reduction; positions not given
In the case of B12, in assay [5], the “EC50 (nM) direct cellular killing, HL60” value worked out at 1.7 nM and the “EC50 (nM) direct cellular killing, U937” value came out at 0.6 nM.

B13: ADC3-10 (antibody, human IgG1, kappa, V domains shown)
VH: EVQLVQSGAEVKKPGASVKVSCKASGYSFTDYYMHWVRQAPGQGLEWIGRINPYAGAAFYSQNFKDRVTLTVDTSTSTAYLELSSLRSEDTAVYYCAIERGADLEGYAMDYWGQGTLVTVSS
VL: DIQMTQSPSSLSASVGDRVTITCRASQSVSTSSYNYMHWYQQKPGKPPKLLIKYASNLESGVPSRFSGSGSGTDFTLTISSLQPEDFATYYCQHSWEIPLTFGQGTKVEIKR
modifications: conjugator-linker-payload on cysteine thiols after TCEP reduction; positions not given
Turning to B13, in assay [4], the “EC50 (nM) direct cellular killing, HL60” value was determined as 1.2 nM; the “EC50 (nM) direct cellular killing, U937” value amounted to 0.7 nM; the “Emax (%) direct cellular killing, HL60” value was found to be 82.2%.

B14: ADC3-7 (antibody, human IgG1, kappa, V domains shown)
VH: EVQLVQSGAEVKKPGASVKVSCKASGYSFTDYYMHWVRQAPGQGLEWIGRINPYAGAAFYSQNFKDRVTLTVDTSTSTAYLELSSLRSEDTAVYYCAIERGADLEGYAMDYWGQGTLVTVSS
VL: DIQMTQSPSSLSASVGDRVTITCRASQSVSTSSYNYMHWYQQKPGKPPKLLIKYASNLESGVPSRFSGSGSGTDFTLTISSLQPEDFATYYCQHSWEIPLTFGQGTKVEIKR
modifications: conjugator-linker-payload on cysteine thiols after TCEP reduction; positions not given
For the molecule B14, in assay [5], the “EC50 (nM) direct cellular killing, HL60” value came out at 0.4 nM and the “EC50 (nM) direct cellular killing, U937” value was 0.3 nM.
